From patent publication US20260001935

System: aflibercept
Sequence (chain, as listed by the source): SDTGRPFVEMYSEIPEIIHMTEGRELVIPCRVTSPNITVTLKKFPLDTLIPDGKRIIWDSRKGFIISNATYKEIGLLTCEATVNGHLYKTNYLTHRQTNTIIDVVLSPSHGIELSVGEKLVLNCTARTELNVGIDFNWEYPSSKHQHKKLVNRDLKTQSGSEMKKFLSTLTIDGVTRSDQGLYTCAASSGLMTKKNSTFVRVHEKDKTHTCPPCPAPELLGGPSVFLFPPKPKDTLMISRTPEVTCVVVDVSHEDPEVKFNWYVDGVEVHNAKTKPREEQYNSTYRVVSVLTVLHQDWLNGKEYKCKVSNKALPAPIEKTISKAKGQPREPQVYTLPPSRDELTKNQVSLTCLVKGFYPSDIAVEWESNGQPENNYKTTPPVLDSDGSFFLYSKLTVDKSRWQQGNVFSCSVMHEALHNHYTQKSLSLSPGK

cathepsin D (Chinese hamster ovary host cell protein; recombinant CHO Cathepsin D with mmh tag), sequence (chain, as listed by the source): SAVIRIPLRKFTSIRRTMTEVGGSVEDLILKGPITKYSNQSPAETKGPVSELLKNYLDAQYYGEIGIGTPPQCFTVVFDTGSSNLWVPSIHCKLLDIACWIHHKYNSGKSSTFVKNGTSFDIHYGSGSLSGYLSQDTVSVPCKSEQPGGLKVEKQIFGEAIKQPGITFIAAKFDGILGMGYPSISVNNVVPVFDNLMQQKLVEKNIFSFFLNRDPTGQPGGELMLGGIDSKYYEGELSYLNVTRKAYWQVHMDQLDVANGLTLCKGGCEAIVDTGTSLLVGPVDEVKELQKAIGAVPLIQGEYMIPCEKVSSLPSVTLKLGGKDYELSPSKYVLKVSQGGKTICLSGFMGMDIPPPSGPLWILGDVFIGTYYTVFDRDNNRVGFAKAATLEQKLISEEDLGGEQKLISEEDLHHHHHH

## cathepsin D (Chinese hamster ovary host cell protein; recombinant CHO Cathepsin D with mmh tag)
  NR-1 band formation, and Y/L cleavage: the results demonstrated a correlation between spiked-in cathepsin D and NR-1 band formation, and Y/L cleavage
